Key:
[1] = confocal microscopy, polarized MDCK; conditions: glycan lost
[2] = immunoblot of HEK293 lysate; conditions: glycan lost
[3] = surface biotinylation, amount of DUOX2 at cell surface; conditions: glycan lost; control: wild type DUOXA2
[4] = domain-selective surface biotinylation, apical vs basolateral; conditions: glycan lost
[5] = surface biotinylation, amount of DUOX1 at cell surface; conditions: glycan lost; control: wild type DUOXA1

B1: DUOXA2: N84Q/N109Q/N121Q (protein)
parent chain: MTLWNGVLPFYPQPRHAAGFSVPLLIVILVFLALAASFLLILPGIRGHSRWFWLVRVLLSLFIGAEIVAVHFSAEWFVGTVNTNTSYKAFSAARVTARVRLLVGLEGINITLTGTPVHQLNETIDYNEQFTWRLKENYAAEYANALEKGLPDPVLYLAEKFTPSSPCGLYHQYHLAGHYASATLWVAFCFWLLSNVLLSTPAPLYGGLALLTTGAFALFGVFALASISSVPLCPLRLGSSALTTQYGAAFWVTLATGVLCLFLGGAVVSLQYVRPSALRTLLDQSAKDCSQERGGSPLILGDPLHKQAALPDLKCITTNL
[1]; control: wild type DUOXA2
  localisation_or_trafficking: no change
[2]; control: wild type DUOXA2
  expression_or_secretion: decreases
[3]
  localisation_or_trafficking: decreases
[4]; control: wild type DUOXA2
  localisation_or_trafficking: no change

B2: DUOXA1: N84Q/N109Q/N121Q (protein)
parent chain: MATLGHTFPFYAGPKPTFPMDTTLASIIMIFLTALATFIVILPGIRGKTRLFWLLRVVTSLFIGAAILAVNFSSEWSVGQVSTNTSYKAFSSEWISADIGLQVGLGGVNITLTGTPVQQLNETINYNEEFTWRLGENYAEEYAKALEKGLPDPVLYLAEKFTPRSPCGLYRQYRLAGHYTSAMLWVAFLCWLLANVMLSMPVLVYGGYMLLATGIFQLLALLFFSMATSLTSPCPLHLGASVLHTHHGPAFWITLTTGLLCVLLGLAMAVAHRMQPHRLKAFFNQSVDEDPMLEWSPEEGGLLSPRYRSMADSPKSQDIPLSEASSTKAYCKEAHPKDPDCAL
[1]; control: wild type DUOXA1
  localisation_or_trafficking: changes
[2]; control: wild type DUOXA1
  expression_or_secretion: no change
[5]
  localisation_or_trafficking: decreases
[4]; control: wild type DUOXA1
  localisation_or_trafficking: changes

— article PMC11555622
